Measurements taken from the DeepSol protein solubility set.

assay: soluble on expression in E. coli; label from the status in PepcDB or PDB records

Sequence	soluble on expression in E. coli
MKRLWQHCHAATLKGGKYSIVEDAALVTDGPLIHWIGPRAELPPGDYAERIDLGGAWLTPGLIDCHTHAVFGGNRSGEFEQRLEGVSYAEIAAAGGGIASTVRATREASEEELLASARKRLEPLLRDGVTALEIKSGYGLDLASERKMLRVIRRLGERLPATVRSTCLAAHALPPEYAGRADDYIEHICSTMLPALAGEGLVDAVDAFCEHLAFSPAQVERVFIAARELGLPVKLHAEQLSSLHGSSLAARYRALSADHLEYMTEDDARAMGEAGTVAVLLPGAFYLLRETQLPPIDALRRHGVAMAIASDLNPGTSPALSLRLMLNMACTLFRLTPEETLAGVTLHAARALGLEASHGSLEVGKLADFVAWDIERPAELAYWLGGDLPKRVIRHAEEVYRG	not soluble
MATPVPLVFNAPKRGMPPTHFADLNDEARIEALKELGLPKFRLNQIARHYYGRLEADPLTMTDLPEGARQEVKDALFPTLMSPLRVVETDDDTTQKTLWKLHDGTLLESVLMRYSDRSTLCISSQAGCGMACPFCATGQGGLDRNLSIGEIVDQVRNAAATMQSEGGRLSNIVFMGMGEPLANYKRVVSAVRQITQPSPAGFGISQRSVTVSTVGLAPAIRKLADEEMSVTLAVSLHTPDDELRDTLVPVNNRWPVAEVLDAARYYADKSGRRVSIEYALIRDVNDQDWRADMLGEKLHKALGSRVHVNLIPLNPTPGSKWDAAPKARQDEFVRRVIAKGVPCTVRDTKGQEIAAACGQLAAEESA	not soluble
MGSDKIHHHHHHMKIVHVCETLKGGIESYLAEIIPYQVGLYGAENIHIIVPRDGDEGRSEFHEAVVWEFRRQGRSLSTMLNLCLAILKIVRTQAPDVIHLHSSFAGAIGRVVLMALRKETKVIYCPHGWSYLRQGAEHTNWLWKKIETMLALACNRIVCISEHEYNAALDAGLPKQKLELIVSGISDLVPDAPRNQAVSSEKRAIRLLFVGRLDYQKGVDLLFNALRLAARKDIELTVVGEAVVNSGWWAQVRGSCPENVQIIGWQERDALQIFYDLADALVVPSRWEGFGLVAVEALRAGTPVICNVAGALPDIVEHGISGYHLNFENEEKAVAFFSDLKLENLTLLRRAARERYTSVFKSQAMNEKMLQMYQAVMPHAETVGAAGFME	not soluble
MDPIASVLEKVKSFTKSSQDLVSRHFGFHENPSRLNPIDILKRLQRETFSDLMKLRERQEKVERIISSQKLSKGGPFQETSTHVRGEVDVLGAILLMGNTDEESFNGLNKEGVRPGLLSRFVFETSLRETDRLVAELVAGYNGAGSHRDFLGGELSLAKVFYKADINDWFSAIAIPVGAHFRDIEASTVSSYQGMSLTEVSELGPPLLSQHNGSAIGLTFRKSNITASLAQSMSNVEVEQGLTAPNRCFRTFGQVTCHILRSLKLSLLGCHQVLTSSSNLHSVGAITVPVSFLRRHTATEPEPSAPPLEMSRNMNHVSSSSIALKLDSLMDESTKLGGWIEIQNSREKQVKWSVSITDNPEDEVGWGMSVGGVVDGSRNHDQFQVESYLKFNIGDRFRLSPCLVYHTNSDGRTIGLMLKSHWSL	soluble
MVLKSKGSVLDLEHDNQTLKDYISVFERNKMRLTQSRLMLLQCLVQHRDWHTLAELKHHLEQNQQRTTLASIYNNLKIFAKLKLINIFVDTNRFETYYCLRHENHKHIYFFDENQRKFLTLPLQDKEALSLIGHKSKHGKIKLNDFYIVASGTLEDDQ	soluble
MALSAEGSSGGSRGGSPKAEAASVPSWPQILGRLTDNRDLARGQAAWAMDQIMTGNARPAQIAAFAVAMTMKAPTADEVGELAGVMLSHAHPLPADTVPDDAVDVVGTGGDGVNTVNLSTMAAIVVAAAGVPVVKHGNRAASSLSGGADTLEALGVRIDLGPDLVARSLAEVGIGFCFAPRFHPSYRHAAAVRREIGVPTVFNLLGPLTNPARPRAGLIGCAFADLAEVMAGVFAARRSSVLVVHGDDGLDELTTTTTSTIWRVAAGSVDKLTFDPAGFGFARAQLDQLAGGDAQANAAAVRAVLGGARGPVRDAVVLNAAGAIVAHAGLSSRAEWLPAWEEGLRRASAAIDTGAAEQLLARWVRFGRQILEHHHHHH	soluble
MMLSRAKPAVGGESPHTDKRKKKGRKIPKLEDLLSQRDFTGAITLLEFKRHVGEQEDDTNLWIGYCAFHLGDYKRALEEYENATKEENCNPEVWVNLACTYFFLGMYKQAEAAGFKAPKSRLQNRLLFHLAHKFNDEKKLMNFHQNLQDIKEDQLSLASNSEIHLPLPPECWD	not soluble
MTGSQVIDAEEDRHKLVVEYKDALQPADFYHNFKQRGIRSVQLIPYLEFDDRGDLTAASVTAELWGKFLIALFECWVRADISRISIELFDATLQKWCGSENPQPRCDCQACDWHRLCPHARQETPDSVLCAGYQAFYSYSAPHMRVMRDLIKQHRSPMELMTMLR	not soluble
MGHHHHHHSHMASETHNVKKRNFCNKIEDHFIDLPRKKISNFTNKNMKEVKKSPKQLAAYINRTVGQTVKSPDKLRKVIYRRKKVHHPFPNPCYRKKQSPGSGGCDMANKENELACAGHLPEKLHHDSRTYLVNSSDSGSSQTESPSSKYSGFFSEVSQDHETMAQVLFSRNMRLNVALTFWRKRSISELVAYLLRIEDLGVVVDCLPVLTNCLQEEKQYISLGCCVDLLPLVKSLLKSKFEEYVIVGLNWLQAVIKRWWSELSSKTEIINDGNIQILKQQLSGLWEQENHLTLVPGYTGNIAKDVDAYLLQLH	not soluble
MKSILEQLSSITVVVADTGDLDAIKKFQPRDATTNPSLILAAAKNPDYIKLIDQALESSRKSLPAGFSESELIKETIDQVSVFFGKEILNLISGRVSTEVDARLSFDTEATVTKARKLINHYKSFGINKERILIKIASTWEGIKAAEILEKEGIKCNLTLLFNFCQAVACANAKITLISPFVGRILDWHKAKTGKDNFAGCEDPGVISVTKIYNYFKEKGFKTEVMGASFRNIDEIKELAGCDLLTIAPKFLDELNREEGELIKKLDEDTQSQSSIDYKFDEKDFRLSMLEDQMASEKLSEGITGFSKAIEELEELLLKRLSEINNQKLISTT	not soluble
ICFSKIFNTQYLSDIRYIDLNQNIDTIKSNFKKGLRYNIKKSKNEGCDLKIIENPSSEDIDHFMECYNSMLCRNESSEKYHFSKQFIMDHFKFIKTFLILAYYQKKVVGAGIFFKGETIMHYHLSGTLKLKGIYPNDLILWESIKKSKDLGLKYFFLGGGVIKDDSLFEYKSGFSK	not soluble
MVLILNGPNLNLLGRREPEVYGRTTLEELEALCEAWGAELGLGVVFRQTNYEGQLIEWVQQAHQEGFLAIVLNPGALTHYSYALLDAIRAQPLPVVEVHLTNLHAREEFRRHSVTAPACRGIVSGFGPLSYKLALVYLAETLEVGGEGF	soluble
MAASLRSFLEQLKRQNSLYLVKKPVNPRFELGALLKKTKGTVPMFFQNIEGYDVPAVGGIVGTRENFAQALRINKSELLAKITEAITNPGETRLLPSGPVQENVLTKGFDIGKMFPIPTFHEKDSGAFITAGIVVAKDPIYGRRFTSIRRMQLNGPNNLSILIESPGLIEQYYEFERRGQAMEVAIVLGVHPAITLSSQLPTQTFGLDKYNVASRLIGEPLPVVKCKTIDLEVPADAEIVLEGRMLPYVRHPEGPFGELMGYYGPQTMQPVVEVTAVTFRNNPIFQVIFPSSYEHKLPNALMREVVLFNHVRHVVPTVQDVHLTMAGGGRCHAIISIKKTAEGQGKQAIFAALASNKDVKHVVVVNDDVDIFDPEDVEWAIATRVQADQDIIIIPGAQGTPLEPSHNLRGVSAKMGIDATYPLAEEERFARTQIPGYDQIRLEDYLTLDW	soluble
MDLSMTTPEEITQYLQDHPEFFEEHPDLLESLRFPHPYEGRVISINERQVAMLREKNKLLQNRLQELIDVGENNDAISEKMHRLTVALLGFGSLPELLHELQYHLCEDFSIPHVVLRLWQIDEFGTEADLPSPEFDPISNNVRILAQGMLRPYCGPEVDDEIRQWFAQDAEYLKSFAVIPLKKQSNFGLLVMASPEAERFYPDMGTLYLERLGDMVSSSIMRLIQQTPGAANRESAS	not soluble
MQYVAYAEGAKMASGAAKETSSNLFGIWDTWNSNPQMRKDHANELKKKSDEAYNNDMEELKKTRSAFDQEIAKRHAAADMQMSELVKSNNTELKTLQDQFNRDEASHGMAMKMMVREHAEKMKELRSEGREAQERAEREHRMKMSEAEEEHRKEKEIAQEKMDAAKREGSMKIALVEEEKQKIMKERSDELEKYTREMNEMAKNHQEERKKHNAIIGQKKMEMIGSKRDQLKIESEKILESMRNDINLLLAVEIKQNGSHLVEKLIDLFESVKTVKCLMDTVQTELTTIGDEVPEITPGQLSTFDDIKRHKTLFDNRVARFRKNVVTSSFTDAKLYEICMTTVSDFEKIMDKQDMKLVCHHLPKAVENQDFKKIKYYADMASKLNNQFSQEVQHLAAGFSNVSKTYAIDRSNQAAIQN	not soluble
MENALSTLPLTAPSAELPRFGPPHIPIREDWLDRQREEILDPGLPIVDAHHHLWDRPGQRYMFEDFLRDTGSGHNIRATVYVQCRSMYRLDGPAAMRPVGEAEFVNGVAARSASGMYGPMRACAAIVGYADLTLGAAVEEVLHALVRAAPDRLRGVRNMTAAHASPAVAPGFGRVPEGLLSDARFRAGYARLAPLGLSYDVWAFHSQLAEVLDLARAYPDTALIVNHAGGPLGIGPYAGQRDAVMRDWDHHLRALADCPNVALKLGGLGMHISGLRFHEQDMPPSSEALAEAWRPWIHTAIERFGAQRCMFESNFPVDKGMAAYAAVWNAFKRLARGATPRERQALFAGTAARLYRLPASVLALEHHHHHH	not soluble
MIRWMNEPLWPFIERKKSMRNLVKYVGIGLLVMGLAACDDKDTNATAQGSVAESNATGNPVNLLDGKLSFSLPADMTDQSGKLGTQANNMHVWSDATGQKAVIVIMGDDPKEDLAVLAKRLEDQQRSRDPQLQVVTNKAIELKGHKMQQLDSIISAKGQTAYSSVILGNVGNQLLTMQITLPADDQQKAQTTAENIINTLVIQ	not soluble
ASVKAVGRVCYSALPSQAHDTLDLIDEGGPFPYSQDGVVFQNREGLLPAHSTGYYHEYTVITPGSPTRGARRIITGQQWQEDYYTADHYASFRRVDFAC	soluble
MGSDKIHHHHHHMDYWEKADYSWSDDSKRHILTPSSKSRTLFYYIQEIGQFKASRPYYTERAHLPSYLIKFTLNGTGELRYRYHTYSLQRGDLFFIDCRDYQYYQATSEDPWEMDWIHFEGGNSGAFFQEFMKNGSPVFSTNQLPEDNPIHLIIQQLLQLQDLQHAQTDYQSSVLIHQLLNELLLQKYRQDFTYETIPSLVLEMKAYIDQHFKETISLEDLAQLFHLNKYQLNKEFSKYIGLPPIKYQISKKISYSKDLLRYSNQTVKEIAVDVGLENYAYFSRLFKKRTGLTPSQYRKSGF	not soluble
